This note sets out measurements from US20220340682A1 (Sanofi, published 2022).

“And” between values parts separate entries of the source, which are not always exact repeats. Equal values may be shown once.

Usually EC50 stands for the concentration at which the effect is half-maximal. A lower EC50 goes with greater potency.

Assay [1] concerns the target T1, cCEACAM5, M. fascicularis CEACAM5 ECD (35-688) (Macaca fascicularis).
T1 construct: ECD followed by a 24 amino acid extension containing a His-Tag; also called cynomolgus CEACAM5; monkey CEACAM5
T1 chain: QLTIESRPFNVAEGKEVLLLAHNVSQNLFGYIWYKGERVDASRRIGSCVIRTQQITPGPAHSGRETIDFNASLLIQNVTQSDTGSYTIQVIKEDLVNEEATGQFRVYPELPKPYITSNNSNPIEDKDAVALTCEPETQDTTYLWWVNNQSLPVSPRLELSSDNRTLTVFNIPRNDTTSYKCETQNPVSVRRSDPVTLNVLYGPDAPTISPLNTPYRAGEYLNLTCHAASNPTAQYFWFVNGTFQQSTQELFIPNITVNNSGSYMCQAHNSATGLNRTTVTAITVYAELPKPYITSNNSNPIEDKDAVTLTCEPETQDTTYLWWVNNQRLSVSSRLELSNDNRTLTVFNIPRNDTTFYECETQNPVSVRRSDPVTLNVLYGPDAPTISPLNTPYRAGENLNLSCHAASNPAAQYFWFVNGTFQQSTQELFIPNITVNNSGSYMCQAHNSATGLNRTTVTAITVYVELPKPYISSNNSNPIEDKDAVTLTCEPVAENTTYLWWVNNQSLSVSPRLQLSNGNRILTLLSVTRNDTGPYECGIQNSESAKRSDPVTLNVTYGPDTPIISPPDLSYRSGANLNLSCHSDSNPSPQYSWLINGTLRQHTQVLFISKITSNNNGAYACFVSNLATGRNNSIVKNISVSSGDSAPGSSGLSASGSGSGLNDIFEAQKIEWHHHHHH
Kind of assay: ELISA.

In assay [2] the target is T2, cCEACAM8, M. fascicularis CEACAM8 ECD (35-332) (Macaca fascicularis).
T2 construct: With 24 amino acid extension containing a His-Tag; also called cynomolgus CEACAM8
T2 chain: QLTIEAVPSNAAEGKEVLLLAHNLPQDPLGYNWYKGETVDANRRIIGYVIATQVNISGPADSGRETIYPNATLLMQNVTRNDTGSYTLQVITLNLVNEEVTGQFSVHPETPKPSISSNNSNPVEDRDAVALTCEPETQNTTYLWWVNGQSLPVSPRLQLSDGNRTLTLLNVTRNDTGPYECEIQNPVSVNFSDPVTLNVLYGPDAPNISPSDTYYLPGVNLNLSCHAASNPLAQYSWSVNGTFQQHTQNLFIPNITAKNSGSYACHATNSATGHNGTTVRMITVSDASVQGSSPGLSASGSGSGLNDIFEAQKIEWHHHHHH
As to the kind of experiment: ELISA.

In assay [3] the target is T1, cCEACAM5, M. fascicularis CEACAM5 ECD …. Kind of assay: ELISA, chimeric mAb.
Assay [4] deals with T3, hCEACAM5, human CEACAM5 ECD (35-685) (human, UniProt P06731 35-685).
T3 construct: produced in HEK293; also called human CEACAM5 protein; human CEACAM5 extracellular domain
T3 sequence: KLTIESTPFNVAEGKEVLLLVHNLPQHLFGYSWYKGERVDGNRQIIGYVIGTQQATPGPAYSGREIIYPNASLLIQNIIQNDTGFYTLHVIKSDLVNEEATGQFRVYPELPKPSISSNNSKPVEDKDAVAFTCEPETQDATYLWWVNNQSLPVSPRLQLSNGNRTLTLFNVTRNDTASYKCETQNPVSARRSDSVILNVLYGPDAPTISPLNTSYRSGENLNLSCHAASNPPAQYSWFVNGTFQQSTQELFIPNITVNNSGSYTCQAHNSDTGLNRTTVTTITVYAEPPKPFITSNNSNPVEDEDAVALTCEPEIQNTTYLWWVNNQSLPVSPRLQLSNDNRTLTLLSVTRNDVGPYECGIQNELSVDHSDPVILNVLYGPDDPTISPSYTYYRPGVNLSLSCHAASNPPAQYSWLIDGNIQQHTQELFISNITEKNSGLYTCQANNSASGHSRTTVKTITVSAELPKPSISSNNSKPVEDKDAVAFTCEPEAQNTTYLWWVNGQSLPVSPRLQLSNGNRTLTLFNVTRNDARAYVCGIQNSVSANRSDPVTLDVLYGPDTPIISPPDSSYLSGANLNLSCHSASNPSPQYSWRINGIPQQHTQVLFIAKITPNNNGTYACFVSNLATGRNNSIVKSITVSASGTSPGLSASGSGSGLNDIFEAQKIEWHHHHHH
As to the kind of experiment: ELISA, chimeric mAb. For orientation: ELISA stands for enzyme-linked immunosorbent assay.

B1: huMAb2-3 (antibody, human IgG1, kappa, V domains shown)
VH: EVQLQESGPGLVKPGGSLSLSCAASGFVFSSYDMSWVRQTPERGLEWVAYISSGGGITYAPSTVKGRFTVSRDNAKNTLYLQMNSLTSEDTAVYYCAAHYFGSSGPFAYWGQGTLVTVSS
VL: DIQMTQSPASLSASVGDRVTITCRASENIFSYLAWYQQKPGKSPKLLVYNTRTLAEGVPSRFSGSGSGTDFSLTISSLQPEDFATYYCQHHYGTPFTFGSGTKLEIKR
notes: Humanized MAb2, human IgG1 / Ckappa; also called MAb2_VL1cVH1a-IgG1
Regarding B1, the “percentage of binding compared to full binding with cynomolgus CEACAM5” value (“percentage of binding” below) was 100% in assay [1] and 1.2% in assay [2].

B2: huMAb2-1 (antibody, V domains shown)
VH: EVQLQESGPGLVKPGGSLSLSCAASGFVFSSYDMSWVRQTPERRLEWVAYISSGGGITYFPSTVKGRFTVSRDNAKNTLYLQMNSLTSEDTAIYYCAAHYFGSSGPFAYWGQGTLVTVSA
VL: DIQMTQSPASLSASVGDTVTITCRASENIFSYLAWYQQKPGKSPKLLVYNTKTLAEGVPSRFSGSGSGTQFSLTISSLQPEDFGSYYCQHHYGTPFTFGSGTKLEIK
notes: Humanized MAb2 (VL1 + VH1) fused to human IgG1 and human Ckappa constant domains; also called MAb2_VL1VH1-IgG1; MAb2VL1VH1-IgG1
For B2, the entries for the “percentage of binding” value in assay [1] and in assay [2] were 100% and 3.6%, respectively.

B3: chMAb2 (antibody, human IgG1, kappa, V domains shown)
VH: EVQLQESGGVLVKPGGSLKLSCAASGFVFSSYDMSWVRQTPEKRLEWVAYISSGGGITYFPDTVQGRFTVSRDNAKNTLYLQMNSLKSEDTAIYYCAAHYFGSSGPFAYWGQGTLVTVSA
VL: DIQMTQSPASLSASVGETVTITCRASENIFSYLAWYQQKQGKSPQLLVYNTKTLAEGVPSRFSGSGSGTQFSLKINSLQPEDFGSYYCQHHYGTPFTFGSGTKLEIKR
notes: Chimeric, human IgG1, Ck isotype; also called MAb2-IgG1; chimeric MAb2
Regarding B3, the half-maximal effective concentration (EC50) in assay [3] was 0.13 nM and 0.17 nM; in assay [4] it was 0.16 nM and 0.14 nM. Besides, the “percentage of binding” value in assay [1] came out at 100%; in assay [2], 1.2%.

B4: huMAb2-2 (antibody, V domains shown)
VH: EVQLQESGPGLVKPGGSLSLSCAASGFVFSSYDMSWVRQTPERGLEWVAYISSGGGITYAPSTVKGRFTVSRDNAKNTLYLQMNSLTSEDTAVYYCAAHYFGSSGPFAYWGQGTLVTVSS
VL: DIQMTQSPASLSASVGDRVTITCRASENIFSYLAWYQQKPGKSPKLLVYNTKTLAEGVPSRFSGSGSGTDFSLTISSLQPEDFATYYCQHHYGTPFTFGSGTKLEIK
notes: Humanized MAb2 (VL1a + VH1a) fused to human IgG1 and human Ckappa constant domains; also called MAb2_VL1aVH1a-IgG1; MA2_VL1aVH1a-IgG1
For the molecule B4, the “percentage of binding” value in assay [1] came out at 100%; in assay [2], 0.9%.

B5: huMAb2-4 (antibody, human IgG1, kappa, V domains shown)
VH: EVQLQESGPGLVKPGGSLSLSCAASGFVFSSYDMSWVRQTPERRLEWVAYISSGGGITYFPSTVKGRFTVSRDNAKNTLYLQMNSLTSEDTAIYYCAAHYFGSSGPFAYWGQGTLVTVSA
VL: DIQMTQSPASLSASVGDTVTITCRASENIFSYLAWYQQKPGKSPKLLVYNTRTLAEGVPSRFSGSGSGTQFSLTISSLQPEDFGSYYCQHHYGTPFTFGSGTKLEIKR
notes: Humanized MAb2, human IgG1 / Ckappa; also called MAb2_VL1d VH1-IgG1; MAb2_VL1dVH1-IgG1
B5: the “percentage of binding” value in assay [1] is 100%; in assay [2], 3.2%.
